Blank lines part the entries; values can stand above or below the binder they belong to.
Experiments:
[1] = molecular target: His tag recombinant human full-length CD33 (human) (UniProt P20138); assay: BLI epitope binning: human CD33-His on anti-penta-His biosensor, reference biosensor (buffer), no saturating mAb
[2] = molecular target: His tag recombinant human full-length CD33 (human) (UniProt P20138); assay: BLI epitope binning: human CD33-His on anti-penta-His biosensor, pre-saturated with H195 (self-competition)
[3] = molecular target: human CD33 on cells (3T3 cells over-expressing CD33; U937, OCi-AML3, HL60, Set2 AML cells with endogenous CD33) (human) (UniProt P20138); assay: flow cytometry on 3T3 cells over-expressing CD33 (3T3-CD33), Alexa Fluor 647 anti-human F(ab')2 detection, non-linear regression
[4] = molecular target: His tag recombinant human full-length CD33 (human) (UniProt P20138); assay: BLI epitope binning: human CD33-His on anti-penta-His biosensor, pre-saturated with 4B2A
[5] = molecular target: His tag recombinant human full-length CD33 (human) (UniProt P20138); assay: BLI (Octet Red96e): antibody captured on anti-huFc biosensor, huCD33-His as analyte, 1:1 Langmuir fit
[6] = molecular target: His tag recombinant human full-length CD33 (human) (UniProt P20138); assay: BLI epitope binning: human CD33-His on anti-penta-His biosensor, pre-saturated with 3P14
[7] = molecular target: human CD33 on cells (3T3 cells over-expressing CD33; U937, OCi-AML3, HL60, Set2 AML cells with endogenous CD33) (human) (UniProt P20138); assay: flow cytometry on U937 AML cells with endogenous CD33 (U937-CD33), Alexa Fluor 647 anti-human F(ab')2 detection, non-linear regression
[8] = molecular target: T1, His tag recombinant human full-length CD33 (human, UniProt P20138 18-259); assay: BLI (Octet Red96e): antibody captured on anti-huFc biosensor, huCD33-His as analyte, 1:1 Langmuir fit
T1 construct: Commercial recombinant protein (R&D Systems / Acro Biosystems); also called huCD33-His; human CD33-His; not shown: 6xHis tag
Description: Lead and reference antibodies were produced recombinantly with a human IgG1 constant region. Selectivity was tested using His tag recombinant human full-length CD33 or CD33-IgC, mouse full-length CD33, and cynomolgus full-length CD33 proteins. Recombinant proteins at 5 μg/mL were captured by pre-blocked Ni-NTA plates. Candidate antibodies were added at 10 μg/mL in triplicate and detected using horseradish peroxidase (HRP)-conjugated anti-human Fc antibody. To assess the binding to cell-surface-bound CD33, 3T3 cells overexpressing CD33, as well as the U937 AML cell line, were used. U937 CD33-knockout (CD33KO) or NALM6 cells were included as negative controls. NALM6, U937 CD33⁺, and CD33KO cells were blocked with human IgG Fc for 20 minutes on ice. The recombinant antibodies were then serially diluted starting at 100 μg/mL concentration and added for 30 minutes on ice. Alexa Fluor 647-conjugated goat anti-human F(ab′)₂ was added to cells for 30 minutes on ice, washed and analyzed by flow cytometry, and normalized to secondary-only staining (MFI ratio). EC₅₀ values were determined by non-linear regression. The binding affinity and epitope binning to human CD33 protein was measured by biolayer interferometry (BLI) using an Octet Red96e. All experiments were carried out using kinetic buffer (PBS pH 7.4, 0.01% BSA, 0.002% Tween-20). […]

His tag recombinant human full-length CD33 (human), sequence (P20138 18-259): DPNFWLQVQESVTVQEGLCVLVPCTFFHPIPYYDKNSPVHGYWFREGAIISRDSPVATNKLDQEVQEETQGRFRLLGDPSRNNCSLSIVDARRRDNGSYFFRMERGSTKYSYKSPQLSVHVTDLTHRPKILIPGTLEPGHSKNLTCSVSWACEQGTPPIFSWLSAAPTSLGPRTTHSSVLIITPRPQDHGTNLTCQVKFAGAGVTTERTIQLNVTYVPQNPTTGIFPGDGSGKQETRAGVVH
T1 sequence (P20138 18-259): as above
human CD33 on cells (3T3 cells over-expressing CD33; U937, OCi-AML3, HL60, Set2 AML cells with endogenous CD33) (human), sequence (P20138 18-364 limits assumed): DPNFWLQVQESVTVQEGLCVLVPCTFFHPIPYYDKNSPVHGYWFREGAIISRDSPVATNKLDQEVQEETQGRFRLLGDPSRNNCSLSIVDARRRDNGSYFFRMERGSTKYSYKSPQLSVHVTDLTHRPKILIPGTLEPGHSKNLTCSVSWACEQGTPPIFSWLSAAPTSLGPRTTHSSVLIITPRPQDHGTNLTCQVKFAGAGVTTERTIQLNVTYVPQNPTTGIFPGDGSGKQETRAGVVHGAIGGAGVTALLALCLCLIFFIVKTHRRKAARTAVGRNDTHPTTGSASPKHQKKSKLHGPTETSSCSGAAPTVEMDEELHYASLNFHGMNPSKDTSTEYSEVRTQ

- binding of competing mAb, % of reference biosensor [1]: 100%
- binding of competing mAb, % of reference biosensor [2]: 5%
- EC50 [3]: 4.8 nM
- binding of competing mAb, % of reference biosensor [4]: 100%
- Kd [5]: 1.22 nM
- kon [5]: 358000 M⁻¹ s⁻¹
- binding of competing mAb, % of reference biosensor [6]: 78%
- EC50 [7]: 0.4 nM
B1: H195 (lintuzumab) (antibody, part only; not given: constant regions, human IgG1, V domains shown, not shown: another chain or arm of the molecule)
VH: QVQLVQSGAEVKKPGSSVKVSCKASGYTFTDYNMHWVRQAPGQGLEWIGYIYPYNGGTGYNQKFKSKATITADESTNTAYMELSSLRSEDTAVYYCARGRPAMDYWGQGTLVTVSS
VL: DIQMTQSPSSLSASVGDRVTITCRASESVDNYGISFMNWFQQKPGKAPKLLIYAASNQGSGVPSRFSGSGSGTDFTLTISSLQPDDFATYYCQQSKEVPWTFGQGTKVEIK

- Kd [8]: 12.9 nM
B2: 4B2A (antibody, V domains shown)
VH: EVHLLESGGGLVQPGGSLRLSCAASGFIFSSNAMSWVRQAPGKGLEWVSAISGYGGNTYYADSVKGRFTISRDNSKNTLYLQMNSLRAEDTAVYYCAKWGTYIVGATGDYWGQGTLVTVSS
VL: QSALTQPPSASGSPGQSVTISCTGTSNDVGGYNYVSWYQQHPGKAPKLLIYEVSKRPSGVPDRFSGSQSGNTASLTVSGLQAEDEADYYCSSYAGSNNWVFGGGTKLTVL
notes: also called TDI-Y-007

- Kd [8]: 12.1 nM
B3: 3P14 (antibody, V domains shown)
VH: EVQLLESGGGLVQPGGSLRLSCAASGFTFSTYAMSWVRQAPGKGLEWVSAISGRGGSTYYTDSVKGRFTISRDNSKNTVSLQMNSLRAEDTAVYYCAGRGDYYYYYGMDVWGQGTTVTVSA
VL: DIVMTQSPLSSPVTLGQPASFSCRSSQSLVYSDGNTYLSWLQQRPGQPPRLLIYKISNRFSGVPDRFSGSGAGTDFTLKISRVEAEDVGVYYCMQSTQFPHTFGQGTKLEIK
notes: Hybridoma-derived mAb from AlivaMab mice; also called TDI-Y-006
